# Measured values: patent publication US20220056125A1 (CEPHALON, published 2022)
# Positions count from the first letter of the chain named. “And” between values parts separate entries of the source, which are not always exact repeats. Identical values can stand only once.
# T1: human PAR-2 (human, UniProt P55085 26-397)
# T1 sequence: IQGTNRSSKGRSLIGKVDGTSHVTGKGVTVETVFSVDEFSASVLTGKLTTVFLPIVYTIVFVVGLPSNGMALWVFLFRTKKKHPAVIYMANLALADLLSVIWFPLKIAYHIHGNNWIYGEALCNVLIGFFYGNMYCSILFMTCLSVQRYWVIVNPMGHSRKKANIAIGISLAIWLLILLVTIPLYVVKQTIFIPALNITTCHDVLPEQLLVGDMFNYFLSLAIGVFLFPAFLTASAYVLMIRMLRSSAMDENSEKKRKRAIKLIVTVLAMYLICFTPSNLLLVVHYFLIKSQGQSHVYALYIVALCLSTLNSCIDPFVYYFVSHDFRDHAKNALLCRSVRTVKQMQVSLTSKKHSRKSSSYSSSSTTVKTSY
# T2: human PAR-1 (human, UniProt P25116 22-425)
# T2 construct: also called huPAR-1
# T2 sequence: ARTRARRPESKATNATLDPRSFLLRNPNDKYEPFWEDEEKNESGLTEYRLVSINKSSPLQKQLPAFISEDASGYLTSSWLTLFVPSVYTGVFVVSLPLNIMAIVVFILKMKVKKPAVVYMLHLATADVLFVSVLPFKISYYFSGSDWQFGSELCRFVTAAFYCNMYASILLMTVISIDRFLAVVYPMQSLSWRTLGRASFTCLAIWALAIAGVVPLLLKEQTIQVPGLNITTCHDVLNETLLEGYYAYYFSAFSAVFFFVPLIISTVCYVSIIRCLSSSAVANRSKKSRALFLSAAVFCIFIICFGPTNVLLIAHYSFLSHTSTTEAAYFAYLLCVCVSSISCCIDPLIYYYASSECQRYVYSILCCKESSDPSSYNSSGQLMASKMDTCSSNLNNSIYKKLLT
# B1: Ab343 (antibody, human IgG4, V domains shown)
# VH: EVQLVESGGGLVQPGRSLKLSCVASGFTFNNYWMSWIRQAPGKGLEWVASITNTGGRIFYPDSVKGRFTISRDNAQNTLYLQMNSLRSEDAATYYCTRDRLYYGSNWFTYWGQGTLVTVSS
# VL: DIQMTQSPHSLSASLGETVSIECLASEAISNYLAWYQQKPGKSPQLLIYYASSLKDGVPSRISGSGSGTQYSLKISNMQPEDEGVYYCQQGYKYPRTFGGGTKLELK
# notes: also called Anti-PAR-2 antibody # 343
# B2: Ab392 (antibody, human IgG4, V domains shown)
# VH: EVQLVESGGGLVQPGRSLKLSCVASGFTFNNKWMTWIRQAPGKGLEWIASITNTGGRTFYPDSVKGRFTISRDDAKSTLYLQMNSLRSEDTATYYCTRATIRRGASYFDYWGQGVMVTVSS
# VL: B1 VL with T18G, A28G, Y36F, K55Q, I62F, R96W
# notes: also called Anti-PAR-2 antibody # 392
# B3: Ab248 (antibody, human IgG4, V domains shown)
# VH: QVQLKESGPGLVQPSQTLSLTCTVSGFSLTNYHVSWVRQPPGKGLEWMGIIWTGGSTAYNSLLKSRLSISRDTSKSQVFLKMNSLQTEDTATYYCARRGLYPYYFDYWGQGVMVTVSS
# VL: EIVLTQSPTTLAASPGEKVTITCRASSRVSNMYWYQQKSGASPKAWIYETSKLASGVPDRFSGSGSGTSYSFTISSMETEDAATYYCHQWTSTPYTFGAGTKLELK
# notes: also called Anti-PAR-2 antibody # 248
# B4: Ab114 (antibody, human IgG4, V domains shown)
# VH: QVQLQQSGPELVKPGASVKISCKTSGFTFTSYYIHWVKQRPGQGLEWIGWIYPGSGNTYYNERFKGKATLTADTSSSTASMQLSSLTSEDSAVYYCANGPLFYGSSYWYFDVWGTGTTVTVSS
# VL: DVQITQSPSYLAASPGETITINCRASKSISRYLAWYQEKPGKTNKLLIYSGSTLQSGVPSRFSGSGFGTDFTLTISSLEPEDFAMYYCQQHNKYPLTFGAGTKLELK
# notes: also called Anti-PAR-2 antibody # 114
# B5: Ab360 (antibody, human IgG4, V domains shown)
# VH: EVQLVESGGGLVQPGRSLKLSCVASGFTFNNYWMTWIRQAPGKGLEWVASITNTGGSTYYPDSVKGRFTISRDNAKSTLYLQMNSLRSEDTATYYCTREGIRGTGWFAYWGQGTLVTVSS
# VL: DTVLTQSPALAVSPGERVTISCRASESVRTRMHWYQQRPGQQPKLLIYGASNPESGVPARFSGSGSGTDFTLTIDPVEADDSATYFCHQSWNEYTFGAGTKLELK
# notes: also called Anti-PAR-2 antibody # 360
# B6: Ab303 (antibody, human IgG4, V domains shown)
# VH: QVTLKESGPGILQPSHTLSLTCSFSGFSLSTYGMGVSWIRQPSGKGLEWLASIWWNGNTYNNPSLKSRLTVSKDTSNNQAFLKVTSVDTADTATYYCAHTPNLGNWFAYWGQGTLVTVSS
# VL: DIQMTQSPSFLSASVGERVTLSCKTSQKINRYLDWYQQKLGEAPKLLIYNTNNLHTGIPSRFSGSGSGTDYTLTISSLQPEDVATYFCLQHSSWPTFGAGTKLELK
# notes: also called Anti-PAR-2 antibody # 303
# B7: Ab86 (antibody, human IgG4, V domains shown)
# VH: EVQLVESGGGLVQPKGSLKLSCAASGFTFNTYAMHWVRQAPGKGLEWVARIRSKNVHYATYYADSVKDRFTISRDDSQNMLYLQMNNLKTEDTAMYYCVREDYYGSSYDYWGQGTTLTVSS
# VL: DIVMTQSHKFMSTSLGDRVSITCKASQDVGSAVAWHQQKPGQSPKVLIYWASNRHTGVPDRFTGSGSGTDFTLTISNVQSEDLADYFCQQYSSYPFTFGSGTKLEIK
# notes: also called Anti-PAR-2 antibody # 86
# B8: Ab84 (antibody, human IgG4, V domains shown)
# VH: B7 VH with V5I, T31S, N79S, Y97F
# VL: B7 VL with L15V, V46L, A51T, S65R, G66R, S93T
# notes: also called Anti-PAR-2 antibody # 84
# B9: Ab87 (antibody, human IgG4, V domains shown)
# VH: B7 VH with N30Y, T31S, K43R
# VL: B7 VL with L15V, G30R, V46L
# notes: also called Anti-PAR-2 antibody # 87
# B10: Ab335 (antibody, human IgG4, V domains shown)
# VH: QVQLKESGPGLVQPSQTLSLSCTVSGFSLSTYGVIWVRQPPGKGLEWMGVIWGNGNTNYNSALKSRLSISRDTSKSQVFLKMNNLQSEDTAMYFCGRWRGYKDYPFDYWGQGVKVTVSS
# VL: DIQMTQSPSFLSASVGDRVTINCKASRNIYKYLDWYQQKLGEAPKLLIYNTNNLHTGIPSRFSGSGSGTDFTLTISSLQPEDVATYFCLQHNSGWTFGGGTKLELK
# notes: also called Anti-PAR-2 antibody # 335
# B11: Ab348 (antibody, human IgG4, V domains shown)
# VH: QVQLKESGPGLVQPSQTLSLTCSVSGFSLSSYGVIWVRQPPGKGLEWMGVVWGNGNTAYNFTLKSRLTISRDTSKSQVFLKMNNLQTEDTAMYFCGRWRGFKDYPFDYWGQGVMVTVSS
# VL: B10 VL with R27Q, N53S
# notes: also called Anti-PAR-2 antibody # 348
# B12: Ab342 (antibody, human IgG4, V domains shown)
# VH: B10 VH with S30N, E46D, N58Y, N60D, V78I, Y101F
# VL: B10 VL with S7T, K24R, R27Q, Q38L, N53T, T96A
# notes: also called Anti-PAR-2 antibody # 342
# B13: Ab323 (antibody, human IgG4, V domains shown)
# VH: B10 VH with S21T, T23S, V34I, N58H, S70T, S87T, K114M
# VL: B10 VL with R27Q, I48M, N53T
# notes: also called Anti-PAR-2 antibody # 323
# B14: Ab311 (antibody, human IgG4, V domains shown)
# VH: B10 VH with S30T, E46M, N58Y, A62P
# VL: B10 VL with R27Q, T51S, N53I, I58V, T74S, T101S, K106R
# notes: also called Anti-PAR-2 antibody # 311
# B15: Ab313 (antibody, human IgG4, V domains shown)
# VH: EVQLKESGPGLVQPSQTLSLTCTVSGFSLTDYSVHWVRQPPGKGLEWMGVMWSGGSTSYNSPLKSRLSISRDTSKSQVFLKTNSLQTEDTAIYYCTRARPTVATLDYWGQGVMVTVSS
# VL: DIQMTQSPSVLSASVGDRVILNCKASQKINKYLNWYQQKLGEAPKLLIYTTNNLQTGIPSRFSGSGSGTDFTLTISSLQPEDFATYFCFQHSSWPTFGAGTKLELK
# notes: also called Anti-PAR-2 antibody # 313
# B16: P24E976 (antibody, human IgG4 S228P, kappa, V domains shown)
# VH: QVQLVQSGAEVKKPGSSVKVSCKASGFSLSSYAISWVRQAPGQGLEWMGVIWGNQNVYYAQKFQGRVTITADESTSTAYMELSSLRSEDTAVYYCARWKGYKDYPFDYWGQGTLVTVSS
# VL: EIVLTQSPATLSLSPGERATLSCRASQNVYKWLDWYQQKPGQAPRLLIYNAYSRATGIPARFSGSGSGRDFTLTISSLEPEDFAVYYCQQHHSGWTFGGGTKVEIKR
# B17: P24E1099 (antibody, human IgG4 S228P, kappa, V domains shown)
# VH: B16 VH
# VL: B16 VL with Y52N
# Target: T1, human PAR-2
# Test: cell-based or functional assay
row,"IC50, PAR-2 β-arrestin cell assay",Binder
1,18.2 nM,B1
2,13.7 nM,B2
3,4.6 nM,B3
4,36.7 nM,B4
5,16 nM,B5
6,9 nM,B6
7,9.9 nM,B7
8,6 nM,B8
9,5.6 nM,B9
10,2.5 nM,B10
11,2.7 nM,B11
12,1.9 nM,B12
13,2.1 nM,B13
14,1.8 nM,B14
15,8.2 nM,B15

# Target: T1, human PAR-2
# Test: cell-based or functional assay
# Remark: another data set of the same source
row,"PAR-2 β-arrestin cell based assay IC50, 2 µM SLIGKV",Binder
1,0.9 nM and 1.26 nM,B16
2,1.37 nM,B17

# Target: T1, human PAR-2
# Test: cell-based or functional assay
# Remark: another data set of the same source
Calcium flux IC50,IL-6 release in A549 cells IC50,IL-8 release in A549 cells IC50,Binder
15.9 nM and 15.3 nM and 7.1 nM and 5.9 nM,5.63 nM,4.25 nM,B16
12.3 nM,6.74 nM,4.89 nM,B17

# Target: T2, human PAR-1
# Test: flow cytometry, transfected Expi293F cells
# Procedure: Paired heavy and light chains encoded by these sequence pairs were expressed as a full length human IgG4 isotype antibodies and assessed for PAR-2 binding and selectivity by flow cytometry. […] Cells were used for flow cytometric analysis 36-48 hours post-transfection. Use of Nt-PAR-2 as a target allowed antibodies which bound the N-terminal residues of PAR-2 (which comprise the protease-cleavage sites on PAR-2) to be distinguished from antibodies which bound other extracellular sites on PAR-2, such as the PAR-2-activating ligand-binding site(s). Expi293F cells, transiently expressing one of each of the different target proteins were labelled with different intensities of a single fluorphor Encoder dye (Intellicyt) for 10 mins at either 1 in 250 dilution for high intensity and/or 1 in 1500 dilution for moderate intensity, enabling simultaneous analysis of multiple cell populations. After washing the cells were then mixed in an equal ratio with the unlabeled cell type and analyzed for antibody binding.
# The cells were plated in 96 well plates at 2×10⁵ cells/well. Following a wash step using Phosphate buffered saline (PBS), the primary antibody (anti-PAR-2 antibody) was added at a concentration of 10 μg/mL in 50 μL of FACS buffer (0.5% w/v BSA in PBS) to each well and incubated for 10-15 mins. Following a wash step, secondary antibody (anti-human Fc-FITC) was added to the wells at 1:200 dilution in 50 μL for 10-15 mins. Following a washing step, the cells were re-suspended in fluorescence-activated cell sorting (FACS) buffer. The flow cytometry analysis was performed on an Intellicyt iQue screener. Gates were drawn around the different intensities of encoder dye-positive cells and these populations were analyzed separately from each other and the unlabeled cells for binding by the primary antibody.
row,binding result,Binder
1,no binding (tested: 10 µg/mL),B1
2,no binding (tested: 10 µg/mL),B2
3,no binding (tested: 10 µg/mL),B3
4,no binding (tested: 10 µg/mL),B4
5,no binding (tested: 10 µg/mL),B5
6,no binding (tested: 10 µg/mL),B6
7,no binding (tested: 10 µg/mL),B7
8,no binding (tested: 10 µg/mL),B8
9,no binding (tested: 10 µg/mL),B9
10,no binding (tested: 10 µg/mL),B10
11,no binding (tested: 10 µg/mL),B11
12,no binding (tested: 10 µg/mL),B12
13,no binding (tested: 10 µg/mL),B13
14,no binding (tested: 10 µg/mL),B14
15,no binding (tested: 10 µg/mL),B15
